Tests used:
Assay in all cases: cryo-EM structure
[1] = molecular target: T1, Plasmodium falciparum myosin A (P. falciparum, UniProt Q8IDR3 1-818); settings: both partners purified
T1 construct: also called PfMyoA; MyoA
T1 sequence: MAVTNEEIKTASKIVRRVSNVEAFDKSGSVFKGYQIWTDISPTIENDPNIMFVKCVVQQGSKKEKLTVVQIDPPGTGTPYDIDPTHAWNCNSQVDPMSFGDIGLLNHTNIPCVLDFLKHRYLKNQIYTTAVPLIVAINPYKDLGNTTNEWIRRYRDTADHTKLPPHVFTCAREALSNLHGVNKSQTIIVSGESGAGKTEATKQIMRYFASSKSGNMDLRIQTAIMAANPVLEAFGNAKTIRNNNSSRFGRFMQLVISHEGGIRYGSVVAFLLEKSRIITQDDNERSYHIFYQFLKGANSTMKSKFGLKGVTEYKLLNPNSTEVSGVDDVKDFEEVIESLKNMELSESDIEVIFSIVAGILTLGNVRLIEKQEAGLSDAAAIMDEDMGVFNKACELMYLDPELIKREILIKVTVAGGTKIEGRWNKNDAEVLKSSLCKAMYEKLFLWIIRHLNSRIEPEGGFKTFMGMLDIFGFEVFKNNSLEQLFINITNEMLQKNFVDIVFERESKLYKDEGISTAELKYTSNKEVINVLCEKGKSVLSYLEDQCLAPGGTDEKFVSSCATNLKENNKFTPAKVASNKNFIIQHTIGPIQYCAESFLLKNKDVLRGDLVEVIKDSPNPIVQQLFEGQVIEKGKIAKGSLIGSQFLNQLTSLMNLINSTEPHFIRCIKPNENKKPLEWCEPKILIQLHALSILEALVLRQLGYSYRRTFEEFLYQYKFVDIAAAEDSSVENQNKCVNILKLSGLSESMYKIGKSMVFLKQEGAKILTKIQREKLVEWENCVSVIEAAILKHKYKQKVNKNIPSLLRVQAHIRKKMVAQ

MyoA:ELC:MTIP complex = molecular target: T2, MyoA:ELC:MTIP complex (P. falciparum, UniProt Q8IDR3;Q8IJM4;Q8I4W8); settings: both partners purified
T2 construct: also called PfMyoA with its two light chains; MyoA:MTIP:ELC complex; copies: + +
T2 sequence 1: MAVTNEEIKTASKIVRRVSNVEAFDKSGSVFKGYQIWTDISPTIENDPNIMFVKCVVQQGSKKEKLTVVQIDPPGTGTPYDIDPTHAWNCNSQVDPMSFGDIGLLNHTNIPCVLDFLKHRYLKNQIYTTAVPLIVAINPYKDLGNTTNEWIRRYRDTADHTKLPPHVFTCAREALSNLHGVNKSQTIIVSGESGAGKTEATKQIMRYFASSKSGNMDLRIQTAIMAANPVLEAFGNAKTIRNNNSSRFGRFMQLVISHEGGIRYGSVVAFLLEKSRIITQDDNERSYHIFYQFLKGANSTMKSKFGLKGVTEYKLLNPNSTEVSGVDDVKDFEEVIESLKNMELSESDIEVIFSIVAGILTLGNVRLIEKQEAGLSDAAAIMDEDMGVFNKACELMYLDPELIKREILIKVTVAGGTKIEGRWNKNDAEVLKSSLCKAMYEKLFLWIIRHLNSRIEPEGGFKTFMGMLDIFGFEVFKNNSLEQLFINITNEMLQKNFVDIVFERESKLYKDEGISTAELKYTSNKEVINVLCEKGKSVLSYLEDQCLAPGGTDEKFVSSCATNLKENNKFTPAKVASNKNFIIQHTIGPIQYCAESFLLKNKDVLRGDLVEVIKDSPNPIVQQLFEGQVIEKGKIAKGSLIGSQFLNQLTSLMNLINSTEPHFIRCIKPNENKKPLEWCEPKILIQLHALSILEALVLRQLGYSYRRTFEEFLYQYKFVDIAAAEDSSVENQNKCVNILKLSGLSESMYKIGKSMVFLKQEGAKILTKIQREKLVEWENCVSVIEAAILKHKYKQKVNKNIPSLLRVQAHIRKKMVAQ
T2 sequence 2: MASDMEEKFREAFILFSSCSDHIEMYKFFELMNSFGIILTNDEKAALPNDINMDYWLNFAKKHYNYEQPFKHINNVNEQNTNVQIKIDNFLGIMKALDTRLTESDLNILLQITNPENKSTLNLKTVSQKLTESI
T2 sequence 3: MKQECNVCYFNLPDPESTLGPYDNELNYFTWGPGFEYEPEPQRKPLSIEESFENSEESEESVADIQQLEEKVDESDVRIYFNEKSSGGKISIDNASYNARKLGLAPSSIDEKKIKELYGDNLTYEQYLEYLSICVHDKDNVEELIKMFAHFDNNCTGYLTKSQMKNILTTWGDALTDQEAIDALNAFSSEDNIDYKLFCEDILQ

cryo-EM structure = molecular target: the molecule itself

| Binder | binding result [1] | binding result (MyoA:ELC:MTIP complex) | binding result (cryo-EM structure) |
| --- | --- | --- | --- |
| Plasmodium falciparum essential light chain (natural protein, also called PfELC; ELC) MASDMEEKFREAFILFSSCSDHIEMYKFFELMNSFGIILTNDEKAALPNDINMDYWLNFAKKHYNYEQPFKHINNVNEQNTNVQIKIDNFLGIMKALDTRLTESDLNILLQITNPENKSTLNLKTVSQKLTESI | binds |  |  |
| Plasmodium falciparum actin 1 filament (natural protein, source: polymerised with jasplakinolide) not shown | binds | binds | binds |

— PMC9037914 (PLoS Pathogens, 2022)
